B1: Protein BCL9 homolog (Drosophila melanogaster (Fruit fly)), Q961D9 (parent)
chain: MLSTTMPRSPTQQQPQPNSDASSTSASGSNPGAAIGNGDSAASRSSPKTLNSEPFSTLSPDQIKLTPEEGTEKSGLSTSDKAATGGAPGSGNNLPEGQTMLRQNSTSTINSCLVASPQNSSEHSNSSNVSATVGLTQMVDCDEQSKKNKCSVKDEEAEISSNKAKGQAAGGGCETGSTSSLTVKEEPTDVLGSLVNMKKEERENHSPTMSPVGFGSIGNAQDNSATPVKIERISNDSTTEKKGSSLTMNNDEMSMEGCNQLNPDFINESLNNPAISSILVSGVGPIPGIGVGAGTGNLLTANANGISSGSSNCLDYMQQQNHIFVFSTQLANKGAESVLSGQFQTIIAYHCTQPATKSFLEDFFMKNPLKINKLQRHNSVGMPWIGMGQVGLTPPNPVAKITQQQPHTKTVGLLKPQFNQHENSKRSTVSAPSNSFVDQSDPMGNETELMCWEGGSSNTSRSGQNSRNHVDSISTSSESQAIKILEAAGVDLGQVTKGSDPGLTTENNIVSLQGVKVPDENLTPQQRQHREEQLAKIKKMNQFLFPENENSVGANVSSQITKIPGDLMMGMSGGGGGSIINPTMRQLHMPGNAKSELLSATSSGLSEDVMHPGDVISDMGAVIGCNNNQKTSVQCGSGVGVVTGTTAAGVNVNMHCSSSGAPNGNMMGSSTDMLASFGNTSCNVIGTAPDMSKEVLNQDSRTHSHQGGVAQMEWSKIQHQFFEERLKGGKPRQVTGTVVPQQQTPSGSGGNSLNNQVRPLQGPPPPYHSIQRSASVPIATQSPNPSSPNNLSLPSPRTTAAVMGLPTNSPSMDGTGSLSGSVPQANTSTVQAGTTTVLSANKNCFQADTPSPSNQNRSRNTGSSSVLTHNLSSNPSTPLSHLSPKEFESFGQSSAGDNMKSRRPSPQGQRSPVNSLIEANKDVRFAASSPGFNPHPHMQSNSNSALNAYKMGSTNIQMERQASAQGGSVQFSRRSDNIPLNPNSGNRPPPNKMTQNFDPISSLAQMSQQLTSCVSSMGSPAGTGGMTMMGGPGPSDINIEHGIISGLDGSGIDTINQNNCHSMNVVMNSMGPRMLNPKMCVAGGPNGPPGFNPNSPNGGLRENSIGSGCGSANSSNFQGVVPPGARMMGRMPVNFGSNFNPNIQVKASTPNTIQYMPVRAQNANNNNNNGANNVRMPPSLEFLQRYANPQMGAVGNGSPICPPSASDGTPGMPGLMAGPGAGGMLMNSSGEQHQNKITNNPGASNGINFFQNCNQMSIVDEEGGLPGHDGSMNIGQPSMIRGMRPHAMRPNVMGARMPPVNRQIQFAQSSDGIDCVGDPSSFFTNASCNSAGPHMFGSAQQANQPKTQHIKNIPSGMCQNQSGLAVAQGQIQLHGQGHAQGQSLIGPTNNNLMSTAGSVSATNGVSGINFVGPSSTDLKYAQQYHSFQQQLYATNTRSQQQQHMHQQHQSNMITMPPNLSPNPTFFVNK
partner: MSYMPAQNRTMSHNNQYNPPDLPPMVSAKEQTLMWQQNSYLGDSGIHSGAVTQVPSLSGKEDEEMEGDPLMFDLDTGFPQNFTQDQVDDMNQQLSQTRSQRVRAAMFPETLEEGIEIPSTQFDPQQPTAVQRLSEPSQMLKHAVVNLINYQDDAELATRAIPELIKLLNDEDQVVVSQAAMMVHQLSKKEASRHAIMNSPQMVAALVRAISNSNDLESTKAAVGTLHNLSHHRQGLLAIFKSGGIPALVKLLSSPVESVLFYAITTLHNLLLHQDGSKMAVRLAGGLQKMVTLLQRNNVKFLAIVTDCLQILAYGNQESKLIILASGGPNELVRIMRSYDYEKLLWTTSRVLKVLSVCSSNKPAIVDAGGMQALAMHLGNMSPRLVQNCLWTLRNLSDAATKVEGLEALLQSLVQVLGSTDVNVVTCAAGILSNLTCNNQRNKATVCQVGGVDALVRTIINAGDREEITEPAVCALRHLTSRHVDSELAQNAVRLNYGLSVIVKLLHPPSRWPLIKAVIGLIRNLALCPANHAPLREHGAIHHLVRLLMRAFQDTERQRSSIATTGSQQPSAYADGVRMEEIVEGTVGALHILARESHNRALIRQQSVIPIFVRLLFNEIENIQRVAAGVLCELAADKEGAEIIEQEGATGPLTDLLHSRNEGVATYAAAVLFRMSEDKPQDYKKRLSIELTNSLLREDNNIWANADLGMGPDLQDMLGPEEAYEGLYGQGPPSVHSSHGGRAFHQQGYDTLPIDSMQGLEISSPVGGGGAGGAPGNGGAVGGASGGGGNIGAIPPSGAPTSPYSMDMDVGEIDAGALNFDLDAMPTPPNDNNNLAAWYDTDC

Variants of: B1
Conditions: with arm_drome arm

Row | effect of a mutation on the interaction | Variant
1 | decreasing interaction | L534F

Source: IntAct's records for PubMed 11955446
